Reference: publication PMC11378909, “Thr^4 phosphorylation on RNA Pol II occurs at early transcription regulating 3′-end processing” (Science Advances, 2024)
Where two headings read alike, the source gives them in different places. Each block holds one molecule with its values, some of them ahead of it. Where no end group is shown, it is not given here.

How the values were obtained:
[1] = target: FITC-labeled pSer2 CTD peptide (16-mer, single phosphorylation at Ser2); experiment: fluorescence anisotropy (FA); settings: read at the highest protein concentration, 100 µM, read off a plot
[2] = target: FITC-labeled pThr4 CTD peptide (16-mer, single phosphorylation at Thr4); experiment: fluorescence anisotropy (FA); settings: read at the highest protein concentration, 100 µM, read off a plot
[3] = target: FITC-labeled pSer2 CTD peptide (16-mer, single phosphorylation at Ser2); experiment: fluorescence polarisation; CID protein titrated into 10 nM FITC-peptide; 50 mM Tris (pH 8.0), 300 mM NaCl, 10 mM BME; room temperature; triplicate; total binding model
[4] = target: FITC-labeled pThr4 CTD peptide (16-mer, single phosphorylation at Thr4); experiment: as above
[5] = system: pThr^4 (6D7) antibody; experiment: Dot blot of pThr^4 CTD peptide after kinase treatment; type: biochemical; settings: pThr^4 CTD peptide (18-mer), 10 μg or 5 μg, kinase-treated vs no-kinase control (fig. S1C)
Text: Another reported Thr^4 antibody masking effect in vitro is observed when Ser^2, two residues upstream of pThr^4, is phosphorylated (pSer^2Pro^3pThr^4Ser^5). Despite the in vitro blocking effect, this potential impediment posed to pThr^4 identification is less concerning under physiological conditions as pSer^2/pThr^4 double phosphorylation is rather rare in cells ([19]). Subsequent biochemical and cellular experiments have shown that, although Ser^2 and Thr^4 phosphorylations occur around the same time during transcription cycle, they tend to occur on different heptads because kinases avoid placing a phosphate on the neighboring Ser^2 when Thr^4 is phosphorylated and vice versa ([19]). […]
Another phosphorylation mark co-occurring with Thr^4 on the same heptad is Tyr1 (accounts for ~5% of doubly phosphorylated heptads) ([19]). […] To corroborate this, we evaluated the possibility that Tyr1 phosphorylation affects pThr^4 detection by treating pThr^4-containing CTD peptide with the Tyr1 kinase, c-Abl (fig. S1B). […]
Serial dilutions of pThr^4 CTD peptide or Dyrk1a/Abl1 kinase-treated pThr^4 CTD peptide were spotted on an activated nitrocellulose membrane. […] The membrane was washed three times and visualized on a LI-COR Odyssey CLx image reader. […]

[6] = target: FITC-labeled pSer2 CTD peptide (16-mer, single phosphorylation at Ser2); experiment: fluorescence polarisation; CID protein titrated into 10 nM FITC-peptide; 50 mM Tris (pH 8.0), 300 mM NaCl, 10 mM BME; room temperature; triplicate; total binding model; remark: listed apart in the source
[7] = target: FITC-labeled pThr4 CTD peptide (16-mer, single phosphorylation at Thr4); experiment: as above; remark: listed apart in the source
[8] = system: pSer^2 Pol II in HEK293 nuclear extract; experiment: Western blot, pSer^2 recognition in HEK293 nuclear extract treated with phosphatase; type: biochemical, human; settings: HEK293 nuclear extract treated with Ssu72, antibody 3E10; vs untreated and inactive Ssu72 mutant
[9] = system: RNA Pol II CTD; settings: cited from earlier work
Text: The reported enrichment of pThr^4pSer^5 double phosphorylation in cells raised concerns for Thr^4 phosphorylation detection as the masking effect by adjacent phosphorylation may block pThr^4 recognition leading to false-negative results ([19]). To address this issue, we explored the possibility of eliminating the masking effect on pThr^4 antibody recognition by selectively removing the interfering phosphate groups on Ser^5 of the CTD. Our prior biochemical and structural analyses have established phosphatase Ssu72 as a highly specific phosphatase for Ser^5 of the CTD, distinguishing Ser^5 from ...

[10] = target: T1, RNA Pol II CTD peptide CTD peptide (Homo sapiens, UniProt P24928, not fully specified (residue 2); also: pSer2 (heptad position 2, which repeat(s) not given here)); experiment: fluorescence anisotropy
T1 chain: YSPTSPSYSPTSPS

[11] = target: T2, RNA Pol II CTD peptide CTD peptide (Homo sapiens, UniProt P24928, not fully specified (residue 4); also: pThr4 (heptad position 4, which repeat(s) not given here)); experiment: fluorescence anisotropy
T2 chain: YSPTSPSYSPTSPS

Molecule: RPRD1B-CID (residues 2 to 133) (from UniProt Q9NQG5) R106A
response ([1]; FITC-labeled pSer2 CTD peptide, parent: est. 170): 8 mP
response ([2]; FITC-labeled pThr4 CTD peptide, parent: est. 150): 8 mP

Molecule: RPRD2-CID (residues 19 to 149) (from UniProt Q5VT52) R122A
response ([1]; pSer2 CTD peptide, parent: est. 180): 16 mP
response ([2]; pThr4 CTD peptide, parent: est. 120): 16 mP

Molecule: RPRD1A-CID (residues 2 to 133) (from UniProt Q96P16) R106A
response ([1]; pSer2 CTD peptide, parent: est. 110): 17 mP
response ([2]; pThr4 CTD peptide, parent: est. 87): 25 mP

Molecule: c-Abl: Tyr1 kinase
effect of kinase treatment on pThr^4 antibody detection [5]: does not affect pThr^4 antibody recognition

B1: SCAF4-CID (residues 1 to 139) (domain or fragment)
chain: MDAVNAFNQELFSLMDMKPPISRAKMILITKAAIKAIKLYKHVVQIVEKFIKKCKPEYKVPGLYVIDSIVRQSRHQFGTDKDVFGPRFSKNITATFQYLYLCPSEDKSKIVRVLNLWQKNGVFKIEIIQPLLDMAAGTS
Kd [6]: 6.7 µM
Kd [7]: 8.1 µM

B3: Ssu72: phosphatase highly specific for Ser^5 of the CTD (protein)
chain: MTDPSKLAVAVVCSSNMNRSMEAHNFLAKKGFNVRSYGTGERVKLPGMAFDKPNVYEFGTKYEDIYRDLESKDKEFYTQNGLLHMLDRNRRIKKCPERFQDTKEQFDIIVTVEERVYDLVVMHMESMESVDNRPVHVLNVDVVDNAEDALMGAFVITDMINMMAKSTDLDNDIDELIQEFEERRKRVILHSVLFY
modifications: left off: 6xHis, end not stated, state not stated | SUMO, end not stated, state not stated
pSer^2 signal recognition [8]: no significant difference
effect on Ser^5 phosphorylation on the CTD ([9]; MS and biochemical assays): effectively eradicating Ser^5 phosphorylation
effect on levels of pSer^2 or pThr^4 ([9]; MS and biochemical assays): no effect
activity against pSer^7 relative to pSer^5 [9]: about three magnitudes lower

B5: CHERP CID (protein)
chain: LLEETQLDMNEFDNLLQPIIDTCTKDAISAGKNWMFSNAKSPPHCELMAGHLRNRITADGAHFELRLHLIYLINDVLHHCQRKQARELLAALQKVVVPIYCTSFLAVEEDKQQKIARLLQLWEKNGYFDDSIIQQLQSPALGLGQYQ
Kd [10]: 10.7 µM
Kd [11]: 3.9 µM

The remaining lines, values ahead:

Kd [3]: 8.7 µM
Kd [4]: 6.6 µM
Molecule: RPRD2-CID (residues 19 to 149) (from UniProt Q5VT52 19-149) (domain or fragment)

response ([1]; pSer2 CTD peptide, parent: est. 170): 17 mP
response ([2]; pThr4 CTD peptide, parent: est. 77): 15 mP
Molecule: SCAF4-CID (residues 1 to 139) (from UniProt O95104) R112A

Kd [6]: 13.8 µM
Kd [7]: 12.3 µM
B2: RPRD1A-CID (residues 2 to 133) (domain or fragment)
chain: SAFSEAALEKKLSELSNSQQSVQTLSLWLIHHRKHSRPIVTVWERELRKAKPNRKLTFLYLANDVIQNSKRKGPEFTKDFAPVIVEAFKHVSSETDESCKKHLGRVLSIWEERSVYENDVLEQLKQALYGDK

Kd [6]: 22.8 µM
Kd [7]: 5.3 µM
B4: RPRD1B-CID (residues 2 to 133) (domain or fragment)
chain: SSFSESALEKKLSELSNSQQSVQTLSLWLIHHRKHAGPIVSVWHRELRKAKSNRKLTFLYLANDVIQNSKRKGPEFTREFESVLVDAFSHVAREADEGCKKPLERLLNIWQERSVYGGEFIQQLKLSMEDSK
